Target: recombinant adeno-associated virus-6 vector particle (rAAV6 capsid) (adeno-associated virus 6)
Assay: co-sedimentation

B1: secreted human Galectin 3-binding protein from HEK293 culture medium (natural protein)
chain: VNDGDMRLADGGATNQGRVEIFYRGQWGTVCDNLWDLTDASVVCRALGFENATQALGRAAFGQGSGPIMLDEVQCTGTEASLADCKSLGWLKSNCRHERDAGVVCTNETRSTHTLDLSRELSEALGQIFDSQRGCDLSISVNVQGEDALGFCGHTVILTANLEAQALWKEPGSNVTMSVDAECVPMVRDLLRYFYSRRIDITLSSVKCFHKLASAYGARQLQGYCASLFAILLPQDPSFQMPLDLYAYAVATGDALLEKLCLQFLAWNFEALTQAEAWPSVPTDLLQLLLPRSDLAVPSELALLKAVDTWSWGERASHEEVEGLVEKIRFPMMLPEELFELQFNLSLYWSHEALFQKKTLQALEFHTVPFQLLARYKGLNLTEDTYKPRIYTSPTWSAFVTDSSWSARKSQLVYQSRRGPLVKYSSDYFQAPSDYRYYPYQSFQTPQHPSFLFQDKRVSWSLVYLPTIQSCWNYGFSCSSDELPVLGLTKSGGSDRTIAYENKALMLCEGLFVADVTDFEGWKAAIPSALDTNSSKSTSSFPCPAGHFNGFRTVIRPFYLTNSSGVD
Q: Which percent of rAAV6 in the pellet fraction (2,000 g, 10 minutes) does the source give for B1 here?
A: 70%

Q: And the percent of rAAV6 in the precipitate (10,000 g, 30 minutes)?
A: 90%
